{
  "source": "patent US20190359687A1",
  "about": "(Bayer, published 2019)",
  "binders": {"B1": {"name": "human glycophorin A in the red blood cell membrane (other, UniProt P02724 20-150, looked up)", "chain": "LSTTEVAMHTSTSSSVTKSYISSQTNDTHKRDTYAATPRAHEVSEISVRTVYPPEEETGERVQLAHHFSEPEITLIIFGVMAGVIGTILLISYGIRRLIKKSPSDVKPLPSPDTDVPLSSVEIENPETSDQ", "notes": "whole, on cells; used for intact RBC, isolated RBC membranes and transfected cells; the assay field tells which; also called GPA; hGPA"}},
  "key": {"[1]": {"molecular_target": "T1, B-domain deleted FVIII (human, UniProt P00451 20-2351)", "T1 construct": "control without scFv; also called BDD; BDD-FVIII", "T1 sequence (looked up)": "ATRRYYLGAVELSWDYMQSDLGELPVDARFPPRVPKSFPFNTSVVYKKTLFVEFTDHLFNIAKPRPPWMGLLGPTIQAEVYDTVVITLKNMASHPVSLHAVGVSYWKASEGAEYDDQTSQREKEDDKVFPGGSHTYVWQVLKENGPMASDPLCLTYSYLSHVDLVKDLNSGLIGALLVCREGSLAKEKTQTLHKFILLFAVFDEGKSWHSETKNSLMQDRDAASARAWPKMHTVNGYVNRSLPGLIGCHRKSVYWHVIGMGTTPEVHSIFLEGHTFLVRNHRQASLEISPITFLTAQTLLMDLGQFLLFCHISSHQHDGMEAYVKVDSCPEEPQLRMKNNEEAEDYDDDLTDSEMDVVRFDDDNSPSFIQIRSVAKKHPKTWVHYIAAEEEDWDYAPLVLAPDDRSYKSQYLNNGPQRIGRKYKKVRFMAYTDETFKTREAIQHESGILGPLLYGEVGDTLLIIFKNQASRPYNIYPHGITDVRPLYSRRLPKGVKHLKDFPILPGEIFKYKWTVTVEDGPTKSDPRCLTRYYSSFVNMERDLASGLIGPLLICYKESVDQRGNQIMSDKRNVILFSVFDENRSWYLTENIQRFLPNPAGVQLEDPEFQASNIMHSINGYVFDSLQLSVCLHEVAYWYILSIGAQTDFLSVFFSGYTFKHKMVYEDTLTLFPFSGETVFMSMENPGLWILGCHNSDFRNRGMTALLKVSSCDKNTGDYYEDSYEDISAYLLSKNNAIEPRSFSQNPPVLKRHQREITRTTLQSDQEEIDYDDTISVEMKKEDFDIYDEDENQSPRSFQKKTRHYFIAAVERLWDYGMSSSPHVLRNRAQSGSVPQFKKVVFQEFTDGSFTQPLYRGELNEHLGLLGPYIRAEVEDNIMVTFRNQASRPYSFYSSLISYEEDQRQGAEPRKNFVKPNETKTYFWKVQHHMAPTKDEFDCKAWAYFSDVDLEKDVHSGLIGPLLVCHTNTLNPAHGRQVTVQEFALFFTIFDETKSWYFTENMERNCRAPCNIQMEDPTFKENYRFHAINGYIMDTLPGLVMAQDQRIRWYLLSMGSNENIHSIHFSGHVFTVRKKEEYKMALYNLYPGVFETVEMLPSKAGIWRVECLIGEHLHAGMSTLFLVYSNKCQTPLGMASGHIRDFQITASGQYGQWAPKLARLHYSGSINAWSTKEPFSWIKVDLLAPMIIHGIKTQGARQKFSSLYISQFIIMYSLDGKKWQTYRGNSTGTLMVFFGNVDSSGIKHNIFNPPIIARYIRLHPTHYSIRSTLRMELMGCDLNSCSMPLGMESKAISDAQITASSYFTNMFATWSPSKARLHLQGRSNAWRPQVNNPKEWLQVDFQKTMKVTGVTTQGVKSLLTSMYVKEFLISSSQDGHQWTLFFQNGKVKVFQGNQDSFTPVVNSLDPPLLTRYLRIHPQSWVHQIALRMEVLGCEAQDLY", "assay": "RBC partition assay, FVIII activity left in plasma"}, "[2]": {"molecular_target": "T2, GP7 peptide (human)", "T2 peptide": "Biotin-SVRTVYPP", "assay": "peptide ELISA, Fab", "description": "(§1) These peptides were attached to the surface of a streptavidin coated plate via a biotin moiety that was present at the N-terminus of each peptide."}, "[3]": {"molecular_target": "T3, GP8 peptide (human)", "T3 peptide": "Biotin-VRTVYPPE", "assay": "peptide ELISA, Fab", "description": "as §1"}, "[4]": {"molecular_target": "T4, GP10 peptide (human)", "T4 peptide": "Biotin-TVYPPEEE", "assay": "peptide ELISA, Fab", "description": "as §1"}, "[5]": {"molecular_target": "T5, GP11 peptide (human)", "T5 peptide": "Biotin-VYPPEEET", "assay": "peptide ELISA, Fab", "description": "as §1"}, "[6]": {"molecular_target": "T6, GP14 peptide (human)", "T6 peptide": "Biotin-PEEETGER", "assay": "peptide ELISA, Fab", "description": "as §1"}, "[7]": {"molecular_target": "T7, GP13 peptide (human)", "T7 peptide": "Biotin-PPEEETGE", "assay": "peptide ELISA, Fab", "description": "as §1"}, "[8]": {"molecular_target": "T8, GP12 peptide (human)", "T8 peptide": "Biotin-YPPEEETG", "assay": "peptide ELISA, Fab", "description": "as §1"}, "[9]": {"molecular_target": "T9, GP15 peptide (human)", "T9 peptide": "Biotin-EEETGERV", "assay": "peptide ELISA, Fab", "description": "as §1"}, "[10]": {"molecular_target": "T10, GP9 peptide (human)", "T10 peptide": "Biotin-RTVYPPEE", "assay": "peptide ELISA, Fab", "description": "as §1"}, "[11]": {"molecular_target": "T11, GP16 peptide (human)", "T11 peptide": "Biotin-EETGERVQ", "assay": "peptide ELISA, Fab", "description": "as §1"}, "[12]": {"molecular_target": "B1", "assay": "SPR, human RBC membranes, Fab", "protocol": "Kinetic analysis of the antibody binding to human red blood cell membranes was also performed using surface plasmon resonance (SPR) using a Biacore instrument. In this assay membranes prepared from human red blood cells were attached to a L1 sensor matrix and antibodies were flowed over the RBC membranes."}, "[13]": {"molecular_target": "T12, GP5-16 alanine scanning peptide (human, N-terminal biotin)", "T12 construct": "GP5 with alanine at position 16", "T12 peptide": "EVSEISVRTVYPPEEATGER", "assay": "alanine scanning peptide ELISA"}, "[14]": {"molecular_target": "T13, GP5-13 alanine scanning peptide (human, N-terminal biotin)", "T13 construct": "GP5 with alanine at position 13", "T13 peptide": "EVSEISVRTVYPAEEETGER", "assay": "alanine scanning peptide ELISA"}, "[15]": {"molecular_target": "T14, GP5-14 alanine scanning peptide (human, N-terminal biotin)", "T14 construct": "GP5 with alanine at position 14", "T14 peptide": "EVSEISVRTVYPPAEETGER", "assay": "alanine scanning peptide ELISA"}, "[16]": {"molecular_target": "T15, GP5-11 alanine scanning peptide (human, N-terminal biotin)", "T15 construct": "GP5 with alanine at position 11", "T15 peptide": "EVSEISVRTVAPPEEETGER", "assay": "alanine scanning peptide ELISA"}},
  "note": "No end group written: not given here. *: point of attachment. Biotin = O=C1N[C@H]2[C@H](CS[C@H]2CCCCC(=O)*)N1",
  "data": [
    {"binder": "B1", "values": [
      {"measurement": "binding result", "setting": "[1]", "result": "no binding (tested: 1 IU/mL)"}
    ]},
    {"binder": "TPP-5906 Fab (Fab, V domains shown, also called parental humanized and germlined 6C12 Fab) VH: EVQLVQSGAEVKKPGASVKVSCKASGYTFTTYTIHWVRQAPGQGLEWMGYINPSSGYTRYNPKFKGRVTMTRDKSTSTAYMELRSLRSDDTAVYYCQTGTRDYWGQGTTVTVSS VL: DIQLTQSPSFLSASVGDRVTITCRASSSVSYIYWFQQKPGKAPKLLIYATSTLQSGVPSRFSGSGSGTEYTLTISSLQPEDFATYYCHQRNSFPYTFGQGTKLEIKR", "values": [
      {"measurement": "binding result", "setting": "[2]", "result": "no binding (tested: 0.5 ug/ml)"},
      {"measurement": "binding result", "setting": "[3]", "result": "no binding (tested: 0.5 ug/ml)"},
      {"measurement": "binding result", "setting": "[4]", "result": "no binding (tested: 0.5 ug/ml)"},
      {"measurement": "binding result", "setting": "[5]", "result": "no binding (tested: 0.5 ug/ml)"},
      {"measurement": "binding result", "setting": "[6]", "result": "no binding (tested: 0.5 ug/ml)"},
      {"measurement": "binding result", "setting": "[7]", "result": "no binding (tested: 0.5 ug/ml)"},
      {"measurement": "binding result", "setting": "[8]", "result": "no binding (tested: 0.5 ug/ml)"},
      {"measurement": "binding result", "setting": "[9]", "result": "no binding (tested: 0.5 ug/ml)"},
      {"measurement": "binding result", "setting": "[10]", "result": "no binding (tested: 0.5 ug/ml)"},
      {"measurement": "binding result", "setting": "[11]", "result": "no binding (tested: 0.5 ug/ml)"},
      {"measurement": "fold improvement of affinity against the parental antibody", "setting": "[12]", "result": "~200", "unit": "fold"},
      {"measurement": "percent reduction of binding", "setting": "[13]", "result": 50, "unit": "%"},
      {"measurement": "percent reduction of binding", "setting": "[14]", "result": 70, "unit": "%"},
      {"measurement": "percent reduction of binding", "setting": "[15]", "result": "> 95", "unit": "%"},
      {"measurement": "percent reduction of binding", "setting": "[16]", "result": "> 95", "unit": "%"}
    ]}
  ]
}
